Literature values as cited in patent US10472401B2, “Peptides and combination of peptides for use in immunotherapy against ovarian cancer and other cancers” (immatics biotechnologies GmbH, priority 2015, dated 2019).

Test system: ovarian cancer
Settings: clinical studies

B1: abagovomab (antibody, chains of the INN, looked up, V domains shown)
VH: QVKLQESGAELARPGASVKLSCKASGYTFTNYWMQWVKQRPGQGLDWIGAIYPGDGNTRYTHKFKGKATLTADKSSSTAYMQLSSLASEDSGVYYCARGEGNYAWFAYWGQGTTVTVSS
VL: DIELTQSPASLSASVGETVTITCQASENIYSYLAWHQQKQGKSPQLLVYNAKTLAGGVSSRFSGSGSGTHFSLKIKSLQPEDFGIYYCQHHYGILPTFGGGTKLEIK
notes: anti-CA-125 antibody
For B1, the “clinical results in ovarian cancer patients” value is listed as “promising results in phase II and III studies”.
